Here are results for five molecules from patent US20250073311A1, “DOSAGE REGIME” (ZEALAND PHARMA A/S, priority 2021, published 2025).

B1: Compound 41 (peptide)
peptide: H-H[Aib]EGTFTSELATILDK([γGlu-C20 diacid])QAARDFIAWLIQHKITD-OH
SMILES: CC[C@H](C)[C@H](NC(=O)[C@H](Cc1ccccc1)NC(=O)[C@H](CC(=O)O)NC(=O)[C@H](CCCNC(=N)N)NC(=O)[C@H](C)NC(=O)[C@H](C)NC(=O)[C@H](CCC(N)=O)NC(=O)[C@H](CCCCNC(=O)CC[C@H](NC(=O)CCCCCCCCCCCCCCCCCCC(=O)O)C(=O)O)NC(=O)[C@H](CC(=O)O)NC(=O)[C@H](CC(C)C)NC(=O)[C@@H](NC(=O)[C@@H](NC(=O)[C@H](C)NC(=O)[C@H](CC(C)C)NC(=O)[C@H](CCC(=O)O)NC(=O)[C@H](CO)NC(=O)[C@@H](NC(=O)[C@H](Cc1ccccc1)NC(=O)[C@@H](NC(=O)CNC(=O)[C@H](CCC(=O)O)NC(=O)C(C)(C)NC(=O)[C@@H](N)Cc1c[nH]cn1)[C@@H](C)O)[C@@H](C)O)[C@@H](C)O)[C@@H](C)CC)C(=O)N[C@@H](C)C(=O)N[C@@H](Cc1c[nH]c2ccccc12)C(=O)N[C@@H](CC(C)C)C(=O)N[C@H](C(=O)N[C@@H](CCC(N)=O)C(=O)N[C@@H](Cc1c[nH]cn1)C(=O)N[C@@H](CCCCN)C(=O)N[C@H](C(=O)N[C@H](C(=O)N[C@@H](CC(=O)O)C(=O)O)[C@@H](C)O)[C@@H](C)CC)[C@@H](C)CC
B2: Compound 40 (peptide)
peptide: H-H[Aib]EGSFTSELATILDEQAARDFIAWLIEHKITD[dK][dK][dK][dK][dK][dK]([γGlu-C18 diacid])-NH2
SMILES: CC[C@H](C)[C@H](NC(=O)[C@H](Cc1ccccc1)NC(=O)[C@H](CC(=O)O)NC(=O)[C@H](CCCNC(=N)N)NC(=O)[C@H](C)NC(=O)[C@H](C)NC(=O)[C@H](CCC(N)=O)NC(=O)[C@H](CCC(=O)O)NC(=O)[C@H](CC(=O)O)NC(=O)[C@H](CC(C)C)NC(=O)[C@@H](NC(=O)[C@@H](NC(=O)[C@H](C)NC(=O)[C@H](CC(C)C)NC(=O)[C@H](CCC(=O)O)NC(=O)[C@H](CO)NC(=O)[C@@H](NC(=O)[C@H](Cc1ccccc1)NC(=O)[C@H](CO)NC(=O)CNC(=O)[C@H](CCC(=O)O)NC(=O)C(C)(C)NC(=O)[C@@H](N)Cc1c[nH]cn1)[C@@H](C)O)[C@@H](C)O)[C@@H](C)CC)C(=O)N[C@@H](C)C(=O)N[C@@H](Cc1c[nH]c2ccccc12)C(=O)N[C@@H](CC(C)C)C(=O)N[C@H](C(=O)N[C@@H](CCC(=O)O)C(=O)N[C@@H](Cc1c[nH]cn1)C(=O)N[C@@H](CCCCN)C(=O)N[C@H](C(=O)N[C@H](C(=O)N[C@@H](CC(=O)O)C(=O)N[C@H](CCCCN)C(=O)N[C@H](CCCCN)C(=O)N[C@H](CCCCN)C(=O)N[C@H](CCCCN)C(=O)N[C@H](CCCCN)C(=O)N[C@H](CCCCNC(=O)CC[C@H](NC(=O)CCCCCCCCCCCCCCCCC(=O)O)C(=O)O)C(N)=O)[C@@H](C)O)[C@@H](C)CC)[C@@H](C)CC
B3: Compound 39 (peptide)
peptide: H-H[Aib]EGTFTSELATILDEQAARDFIAWLIAHKITD[dK][dK][dK][dK][dK][dK]([γGlu-C18 diacid])-NH2
SMILES: CC[C@H](C)[C@H](NC(=O)[C@H](CC(C)C)NC(=O)[C@H](Cc1c[nH]c2ccccc12)NC(=O)[C@H](C)NC(=O)[C@@H](NC(=O)[C@H](Cc1ccccc1)NC(=O)[C@H](CC(=O)O)NC(=O)[C@H](CCCNC(=N)N)NC(=O)[C@H](C)NC(=O)[C@H](C)NC(=O)[C@H](CCC(N)=O)NC(=O)[C@H](CCC(=O)O)NC(=O)[C@H](CC(=O)O)NC(=O)[C@H](CC(C)C)NC(=O)[C@@H](NC(=O)[C@@H](NC(=O)[C@H](C)NC(=O)[C@H](CC(C)C)NC(=O)[C@H](CCC(=O)O)NC(=O)[C@H](CO)NC(=O)[C@@H](NC(=O)[C@H](Cc1ccccc1)NC(=O)[C@@H](NC(=O)CNC(=O)[C@H](CCC(=O)O)NC(=O)C(C)(C)NC(=O)[C@@H](N)Cc1c[nH]cn1)[C@@H](C)O)[C@@H](C)O)[C@@H](C)O)[C@@H](C)CC)[C@@H](C)CC)C(=O)N[C@@H](C)C(=O)N[C@@H](Cc1c[nH]cn1)C(=O)N[C@@H](CCCCN)C(=O)N[C@H](C(=O)N[C@H](C(=O)N[C@@H](CC(=O)O)C(=O)N[C@H](CCCCN)C(=O)N[C@H](CCCCN)C(=O)N[C@H](CCCCN)C(=O)N[C@H](CCCCN)C(=O)N[C@H](CCCCN)C(=O)N[C@H](CCCCNC(=O)CC[C@H](NC(=O)CCCCCCCCCCCCCCCCC(=O)O)C(=O)O)C(N)=O)[C@@H](C)O)[C@@H](C)CC
B4: Compound 38 (peptide)
peptide: H-H[Aib]EGTFSSELATILDEQAARDFIAWLIAHKITD[dK][dK][dK][dK][dK][dK]([γGlu-C18 diacid])-NH2
SMILES: CC[C@H](C)[C@H](NC(=O)[C@H](CC(C)C)NC(=O)[C@H](Cc1c[nH]c2ccccc12)NC(=O)[C@H](C)NC(=O)[C@@H](NC(=O)[C@H](Cc1ccccc1)NC(=O)[C@H](CC(=O)O)NC(=O)[C@H](CCCNC(=N)N)NC(=O)[C@H](C)NC(=O)[C@H](C)NC(=O)[C@H](CCC(N)=O)NC(=O)[C@H](CCC(=O)O)NC(=O)[C@H](CC(=O)O)NC(=O)[C@H](CC(C)C)NC(=O)[C@@H](NC(=O)[C@@H](NC(=O)[C@H](C)NC(=O)[C@H](CC(C)C)NC(=O)[C@H](CCC(=O)O)NC(=O)[C@H](CO)NC(=O)[C@H](CO)NC(=O)[C@H](Cc1ccccc1)NC(=O)[C@@H](NC(=O)CNC(=O)[C@H](CCC(=O)O)NC(=O)C(C)(C)NC(=O)[C@@H](N)Cc1c[nH]cn1)[C@@H](C)O)[C@@H](C)O)[C@@H](C)CC)[C@@H](C)CC)C(=O)N[C@@H](C)C(=O)N[C@@H](Cc1c[nH]cn1)C(=O)N[C@@H](CCCCN)C(=O)N[C@H](C(=O)N[C@H](C(=O)N[C@@H](CC(=O)O)C(=O)N[C@H](CCCCN)C(=O)N[C@H](CCCCN)C(=O)N[C@H](CCCCN)C(=O)N[C@H](CCCCN)C(=O)N[C@H](CCCCN)C(=O)N[C@H](CCCCNC(=O)CC[C@H](NC(=O)CCCCCCCCCCCCCCCCC(=O)O)C(=O)O)C(N)=O)[C@@H](C)O)[C@@H](C)CC

Numbered stars: 1 amine (or outer) side, 2 acyl side, 3 side chain; on linkers, the order of the positions; unused ones are H or OH. Square brackets hold non-standard residues; d marks the D form. Side chains are listed from the residue outwards. * marks the point of attachment. C20 diacid = O=C(O)CCCCCCCCCCCCCCCCCCC(=O)*; C18 diacid = O=C(O)CCCCCCCCCCCCCCCCC(=O)*; γGlu = O=C(O)[C@H](CCC(=O)[*:2])N[*:1]; AEEA = NCCOCCOCC(=O)O; Aib = CC(C)(N)C(=O)O

The first assay concerns the target human glucagon-like peptide 1 receptor (GLP-1R) (human, UniProt P43220). The assay is described as follows: cell-based or functional assay.
H-H[Aib]EGSFTSEK([AEEA-AEEA-γGlu-C20 diacid])ATILDEQAARDFIAWLIEHKITD-OH [Compound 42]: the “EC50 GLP-1 (nM), cAMP AlphaScreen” value turned out to be 0.067 nM.

On to B1, for which the “EC50 GLP-1 (nM), cAMP AlphaScreen” value worked out at 0.048 nM.

With B2, the “EC50 GLP-1 (nM), cAMP AlphaScreen” value came out at 0.074 nM.

Turning to B3, the “EC50 GLP-1 (nM), cAMP AlphaScreen” value is 0.044 nM.

Turning to B4, the “EC50 GLP-1 (nM), cAMP AlphaScreen” value was 0.25 nM.

The target of another assay is T1, human GLP-2 receptor (hGLP2-R) (human, UniProt O95838).
T1 sequence: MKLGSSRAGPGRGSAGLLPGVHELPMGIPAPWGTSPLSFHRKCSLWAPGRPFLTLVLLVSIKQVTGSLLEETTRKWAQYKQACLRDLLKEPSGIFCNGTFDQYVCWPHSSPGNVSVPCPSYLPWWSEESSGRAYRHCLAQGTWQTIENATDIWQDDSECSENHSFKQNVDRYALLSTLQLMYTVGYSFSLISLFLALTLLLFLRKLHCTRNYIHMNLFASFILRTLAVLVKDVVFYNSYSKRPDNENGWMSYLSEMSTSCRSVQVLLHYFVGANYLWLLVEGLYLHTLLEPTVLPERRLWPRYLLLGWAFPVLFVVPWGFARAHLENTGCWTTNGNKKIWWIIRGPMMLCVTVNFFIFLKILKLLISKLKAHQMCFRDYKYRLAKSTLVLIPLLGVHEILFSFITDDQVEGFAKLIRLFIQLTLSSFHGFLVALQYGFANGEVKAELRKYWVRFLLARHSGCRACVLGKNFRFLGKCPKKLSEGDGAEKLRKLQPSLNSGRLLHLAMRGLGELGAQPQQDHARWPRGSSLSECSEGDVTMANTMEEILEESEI
The assay is described as follows: cell-based or functional assay.
Regarding H-H[Aib]EGSFTSEK([AEEA-AEEA-γGlu-C20 diacid])ATILDEQAARDFIAWLIEHKITD-OH [Compound 42], the “EC50 GLP-2 (nM), cAMP AlphaScreen” value turned out to be 0.33 nM.

B1: the “EC50 GLP-2 (nM), cAMP AlphaScreen” value turned out to be 0.62 nM.

B2: the “EC50 GLP-2 (nM), cAMP AlphaScreen” value was 0.5 nM.

As for B3, the “EC50 GLP-2 (nM), cAMP AlphaScreen” value worked out at 0.98 nM.

B4: the “EC50 GLP-2 (nM), cAMP AlphaScreen” value turned out to be 0.89 nM.
